Measurements reported in patent US7838495B2, “Compositions and methods of use of EPB1, and ErbB3 binding protein” (University of Maryland, Baltimore, priority 2007, dated 2010).

Legend:
[1] = test system: LNCaP cells; test: LNCaP xenografts in SCID mice; format: in vivo
Method: In Vivo Studies in SCID Mice: Male SCID mice, 4-6 weeks of age, were purchased from the National Cancer Institute (Frederick, Md.). Animals were housed in a pathogen-free environment under controlled conditions of light and humidity and received food and water ad libitum. LNCaP cells were grown in complete medium and 800 μg/ml of G418 until 80% confluent. Cells were scraped into phosphate-buffered saline (PBS), collected by centrifugation, and suspended in Matrigel™ (10 mg/ml) (Collaborative Research, Waltham, Mass.) at 1×10^7 cells/ml. Each mouse received s.c. injections at one site on each flank with 100 μl of cell suspension. Tumors were measured three times a week with calipers, and tumor volumes were calculated by the formula 0.5236×r1^2×r2 (r1<r2). The animal protocols were approved by the Institutional Animal Care and Use Committee at the University of Maryland.
After sacrifice, tumors were excised and fixed in 10% buffered neutral formalin. Sections of formalin-fixed, paraffin-embedded tissues were cut to 5 μm. Slides were stained with an EPB1 antibody (Upstate) diluted 1:50 using the standard avidin-biotin method (Vector Labs, Burlinghame, Calif.). Peroxidase activity was localized by the diaminobenzidine tetrachloride peroxidase reaction with Harris hematoxylin as a counterstain.

[2] = test system: MCF-7 cells; test: HRG-induced MAPK and AKT phosphorylation in MCF-7 transfectants; format: cell-based, human; conditions: EBP1 overexpressing MCF-7 cells
Method: FIG. 11A-C. Ebp1 affects HRG-induced downstream signaling pathways. Serum starved MCF-7 vector control (CMV) or EBP1 transfected cells (Ebp1) cells were stimulated with HRG (20 ng/ml) for the indicated times. Cells lysates were blotted with antibodies to (A) phosphor MAPK and total MAPK or (B) phospho-Akt or total AKT. Data are representative of three experiments. […] Eight hours after transfection, cells were refed with media with 2% serum and the indicated concentrations of HRG. Growth was assessed by MTT assay 3 days later. Data are representative of two experiments.
2.5. Western blot analysis. Total cell extracts were prepared by direct lysis of cells with lysis buffer [50 mM Tris-HCl (pH 7.4), 1 mM EDTA, 250 mM NaCl, 1% Triton X-100, 0.5 mM DTT, and 1× Complete™ protease inhibitor]. Protein concentrations were measured using a detergent compatible kit (Bio-Rad). Proteins (30 lg per well) were resolved by SDS-PAGE, transferred to PVDF membranes, and immunoblotted as described. […] Images were quantified using IMAGE-J software (NIH). […] Relative cell numbers were determined 4 days later using a Promega Proliferation Reagent as per manufacturer's instructions with absorbance being read at 490 nm using a Dynex plate reader. […] Data were analyzed using a two-tailed Students t-test and a p <0.05 was deemed statistically significant. […]

B1: EBP1: ErbB3 binding protein (SEQ ID NO: 2), AR corepressor, here ectopically expressed in cancer cells by stable transfection of an expression plasmid (protein, listed as Homo sapiens)
chain: MSGEDEQQEQTIAEDLVVTKYKMGGDIANRVLRSLVEASSSGVSVLSLCEKGDAMIMEETGKIFKKEKEMKKGIAFPTSISVNNCVCHFSPLKSDQDYILKEGDLVKIDLGVHVDGFIANVAHTFVVDVAQGTQVTGRKADVIKAAHLCAEAALRLVKPGNQNTQVTEAWNKVAHSFNCTPIEGMLSHQLKQHVIDGEKTIIQNPTDQQKKDHEKAEFEVHEVYAVDVLVSSGEGKAKDAGQRTTIYKRDPSKQYGLKMKTSRAFFSEVERRFDAMPFTLRAFEDEKKARMGVVECAKHELLQPFNVLYEKEGEFVAQFKFTVLLMPNGPMRITSGPFEPDLYKSEMEVQDAELKALLQSSASRKTQKKKKKKASKTAENATSGETLEENEAGD
modifications: FLAG tag
For B1, the “inoculation sites with tumors on day 20” value ([1]; EBP1-transfected LNCaP s.c. in SCID mice (vector controls 35%)) was 10%, the “sites that developed tumors at the end of the study” value ([1]; EBP1-transfected LNCaP s.c. in SCID mice (vector more than 85%), p=0.04) was “less than 40%” and the “average tumor volume at the end of the study” value ([1]; EPB1-transfected LNCaP in SCID mice (vector 1214±168), p=0.0003) was 268±70 mm^3. The tumor growth rate ([1]; EPB1 transfectants vs vector, all time points, p=0.0001) was “slower” and the “basal MAPK phosphorylation” value [2] was “constitutively phosphorylated”.
